Reference: article PMC11641776, “Biophysical Characterization of a Novel Phosphopentomutase from the Hyperthermophilic Archaeon Thermococcus kodakarensis” (International Journal of Molecular Sciences, 2024)

Biological target: the molecule itself
Experiment: SEC; HiLoad 16/60 Superdex 200 Prep Grade column, 50 mM HEPES pH 7.0, 200 mM NaCl; elution at 61 mL, compared with standards

B1: Phosphopentomutase from Thermococcus kodakarensis (PPMTk) (enzyme)
chain: RLFGTAGIRGTLWEKVTPELAMKVGMAVGTYKSGKALVGRDGRTSSVMLKNAMISGLLSTGMEVLDADLIPTPALAWGTRKLADAGVMITASHNPPTDNGVKVFNGDGTEFYVEQERGLEEIIFSGNFRKARWDEIKPVRNVEVIPDYINAVLDFVGHETNLKVLYDGANGAGSLVAPYLLREMGAKVLSVNAHVDGHFPGRKPEPRYENIAYLGKLVRELGVDLAIAQDGDADRIAVFDEKGNYVDEDTVIALFAKLYVEEHGGGTVVVSIDTGSRIDAVVERAGGRVVRIPLGQPHDGIKRYKAIFAAEPWKLVHPKFGPWIDPFVTMGLLIKLIDENGPLSELVKEIPTYYLKKANVLCPDEYKAEVVRRAAEEVERKLSSEIKEVLTISGFRIALNDGSWILIRPSGTEPKIRVVAEAPTEKRRDELFEMAYSTVSRIVKEAEKK
notes: Phosphopentomutase PPMTk of Thermococcus kodakarensis, encoded by open reading frame TK1777; UniProt entry Q6I7B6; residues 3-447 are modelled in each of the four protomers of the crystal structure; the tag was cut off with TEV protease before SEC and the later analyses; also called TK1777; Tk1777; not shown: His6, N-terminal, cleaved
stoichiometry N: 4
